The DeepSol protein solubility set

Assay: soluble on expression in E. coli; label from the status in PepcDB or PDB records

Soluble on expression in E. coli, not soluble:
MGSDKIHHHHHHMNKTDIAQDTINAAVWTACDTFRGTVDPSVYKDYVLTMLFLKYVSDVWQDHYDDYKTKHGNKPGLIEELLKNERFVLPHRANFYTLYDQRHRPGNGERIDTALHAIEDANLGKLRDVFQDISFNANKLGEEQQKNDLLRHLLEDFAKPALNLRPSRIGQLDIIGNAYEYLIKNFASSSGKKAGEFYTPPEVSALMARLMDPQQGDEICDPTCGSGSLLLKCGRLIRERTGSGKYALYGQEAIGSTWALAKMNMFLHGEDNHRIEWGDTIRNPKLLAGNHLKHFDIVVANPPFSLEKWGHDSADTDPHDRFRRGLPPRTKGDYAFILHMIATMKPRTGRMAVVVPHGVLFRGAAEGRIRQKLIEENLLDVVIGLPEKLFYGTGIPAAVLVFRTKKKDKKVLFIDASRQYQDGKNQNLLRESDLQRILDTVQARQNVDKYAYLASPDEIAGHDYNLNIPRYVDTFEEEAEIDLMAVRREREQLKGELATLEMQMAAYLKELGYE, MGSDKIHHHHHHMNKTMWSIGFQKHLPINEEASLFRFETAVPQPEGRDLLVKVDAVSVNPIDVAVRKNGTETLDEPKVIGWDAVGTVIAKGASAGYFEIGDRVFYAGSFKRAGSDSEYQLVDERVVGHAPEKLSNAEAAAMPLTSLTAWEALFEQLEIDREDVQGNADKSILIINGAGGVGSIATQLAQKAGLHVIASASRPETIEWCLKHGADETVNHRNNLIDEVRNLGHQYVDYILELNNIDAHWDEMVELIKPNGRMTSITQNHEPVDLKALKHKRVTFAWEWMYTKSYYETPDMETQHVYLDEIARLLDAGELISTLTKQLSPINVENLKQAHKLVEGNHMMGKVVVENLED, MGSDKIHHHHHHMNLVEISDIDKEILMKLEYEFPFDPQPFNIISDGLKISEEELLNRVKKLLEDGIIKRIGMYVSFRAKGMDGALIAARIPQDKIEKFRKIALGIRELTHNYVRDHPKFNIWFVLKANDRDTLNENVKELLSHVESNDYVILYSKKTLKLSVKYDVIRGVSWSPNNTIRSLSKVPTAEELGINKQLLTELSYPLKISQRPFKEIAEKYKMKEDELVELIKELYDKNVIKDYGATLNGEKIGIVENGMVLLDTSNVEQACEKLALNIPEATHVVLRESNDENWKYLCYSMIHASKKETIRNVAKEISKETNSRSYMILFSLENLKPGIVI, MGSDKIHHHHHHMNLWDKKAKTYARYQNTLNTIQKQTFEYLQNLKISFQDKSIIDIGCGTGVWTLHLAKEAKEILALDSANAMLEILQEDAKKLNLNNIKCKNLSFETWMQNNPNVKFDLAFLSMSPALQNEKDYTNFLNLAKIKIYLGWADYRKSDFLDPIFKYFNTEFKGFYKKDLENYLLEKNIFFHKIVFDETRKVQRTKEEAIENALWHLSMNKITASKETVSSFVENNITETIESKIKLLIINNL, MGSDKIHHHHHHMNNINDSSAIHITPETFVKQIRSLGRYNFPEPALVDPDGIGIVGIGGNLAPETLISAYAQGLFPWFNDDEPIAWWCPEPRCVMQPTDYQPSKSLRKQANNARWQLTLNQAFNEVIHACSLPRSNGLPEGEHTWIHDDMIEAYNELHAQGFAHSVEVWDDQGQLVGGLYGLKIGSIYFGESMFHIASNASKLAFWGLMRLCTQSNVTLVDCQLPNEHLMSLGAITLSRTEFLTQLDTLISNGSDAWHKNSHRPLAVSLLGNLQPWQLNP, MGSDKIHHHHHHMNNLIVTPGYASQFSCIGSACEDSCCHDWTIIFDKKSYKNTLNHPKLASLAKEAFIETKTDANQWAQIKLNANGTCPFVNEQQLCAIHAAAGETALSHTCKTYPRINNVIATTKYESLSLSCPEAARLVLFDANAFQFEAKSGGAKRPTAANPAWLEKTYDYSLDLLINMGVDWQQALMAIGLLVKVSDQVRQNALPIAQIDQRFEQLILLAQTKEITAQYQKIPYTPQPQTHAFVSIHDQLCKLHSRSLKPRFTSLNEAIGLLCNEGNQYQIDHLNKAWEEKALPALSNYQDLFDRYILYSLYHEHFPMIHSQQPWMAFRLLVIDCFMIRCYLSAMAFKNNGLTESDIVLCFQLYSVVRQHKAKFAEGINQTLQECGIDSIPAAISLLKTS, MGSDKIHHHHHHMNPVTHKAVLLLRPGKSPDDFTQQLRKTGRECFVHSFIEIEPLPVNKEQLTQIKQKHWDGIVIVSKNAAHYASRAGFSGVPSKYYAVGPGTASFACKHLNTAVSCPAFIHQSEGLLELSELQKLQQQNWLIIRGEGGRELLADAIRARGASVDYWEVYRRKQLTLNDPELIQQWISSVGTIVVTSAEQLGYFLSSMPNSAQSWLDSCQWIVPSHRLKGLIPFGQSDNIKVTGSAADAILMNALIADGKTHD, MGSDKIHHHHHHMNQNRIPLYEALIEFKERRPLSFHVPGHKNGLNFPQGAVEEFKDILSIDVTELSGLDDLHSPFECIDEAQQLLADVYEVEKSYFLINGSTVGNLAMILSCCREHDIVLVQRNCHKSIINGLKLAGANPIFLDSWIDEAYNVPVGIHDEIIKEAIEKYPNAKALILTHPNYYGMGMDLEASIAYAHAHKIPVLVDEAHGAHFCLGGAFPKSALAYGADIVVHSAHKTLPAMTMGSYLHINSRLVKEERVSTYLSMLQSSSPSYPIMASLDIARFTIARIKEKGHDEIVEFLREFKEELSSIPQIAILQYPLQDELKVTVQTRCQLSGYELQSVLEKVGIYTEMADPYNVLFILPLQVNKTYMKAVEMIRAALQSYEVKDKTESIRYTYKGEISPLPYTYKQLEGYETKVVSVEEAVGMIAAEMVIPYPPGIPLIMYGERITSEHKEQIMHLERAGARFQGSTKYMKVYDIESRF, MGSDKIHHHHHHMNREFYGKIIISGEIEAVTGLHIGSQREVSEIGGIDNPVIKDPHTGLPYIPGSSLKGRLRSLFEIYVNTRLDELKSKYSSLSNYSKGSCRDVGKENCGKFFNKKLNNVWIHVCSTYEMARNCPVCRLYGSSGKESNFPSRLIVRDAFLTEEWKKKWENGEAITEAKIEVGIDRVTSQANPRTTERVVAGTRFDFEIIYTIEDLKEWKDDLRNLLTSMLLLEDSYLGGSGSRGYGKVRFHVKGLELRPLEYYRTGDEGKIVKKTEYERVEDLLKNFETITSEFDRRVGGIEG, MGSDKIHHHHHHMNSLPTESPQSKKSLPSTSMLAAFDAAARTGSFTAAAKDLALTQGAISRQVNALEMQISVNLFHRHKQNISLTEAGKTYAKEVNSALSHIRSATLNLMTNPDGGILNIAILPTFGSRWLMPRLADFLAKHPRITINTVCKLSQFDFSHEDIHCAIHFGKADWSQANCTFLMAEESVPVCSPKLFEQAELAKVDNVCARLINLPLLHIATRPNAWQHWFDEHNVDSTTKEQPKKKTLQDMHFEQFSIVTNAAVAGLGVALLPKFLVESELQRGELQVICNKPQRTDNGYYLVTPNDKLNYAPMVAFTRWLSQVIKSEKPSILNK, MGSDKIHHHHHHMNSPAMSPNTLGIDFGTSNSAAGLAVAGRPWLVELEPGETTLPTAVFFDSDSKKMRIGRSATRALIEGEEGRFMRALKSLLGTSLLYEKRRLGGVTMDFTDVIAHFLREVKTRAETATRMEFTHALSGRPVKFHSKDETRNARAEEDLRHCYKKAGFQDVTFMYEPEAALRAARPHPGIGLVVDIGGGTSDFTCFEQDATGGTRILASHGLRLGGTDFDRQISIDHVMPHLGRGAMIRNSFGEGSLPAPNRIFNDLATWQMIPFLYGLDTRRAARDLAQNAEDPTTLNRLVQVLEDELGHDLAFATEAGKIRANGSDDAGAQIDLRLIERGLSAALPRAALEASLAQMVREIQDEAKETLRLADVAPEAVTRCVMVGGSALLMAVRAALQDLCPTAEIETERALTAVADGLALETQDGAA, MGSDKIHHHHHHMNTGASAGVCDAFDRGRFRNAIEVFSSRMPAEIRTARASDVDDLAAIEKAVFSSDRISRRSFRLFIERETAETLVAEVDGRVAGYAIVLFRKGSGVARLYSIAVGPFFGALGIGRQLLTAAEEAAFEHDRMMLRLEVREDNSRAIRIYEQAGYRKIGREPGYYEDGATALRYEKTLRGDLPVATRVPFYQQTCEFTCGPCCLMMAMANFDRGFVPDPVMEIRLWREATTVFMMSGPGGCEPFGLAVSGYESGLAAEIFVSFYGALFLQSVRSEDKRRVMELAQVDFRRRAELYGIPVNCRPFTLDDIRTAIAAGKLVLVLISGFLMFGKKVPHWVLAIGDDGDHILIHDPWVEDERQETILDAANIPVPYGIFMNMAQFGRDGLRAAITLGKRDTQ, MGSDKIHHHHHHMNTRILNALKQTTLIEEKQKASHCFVEDMPPYAINQELSLKEHGRVLSNYFFKNKDIYISRHNRYADYPTHTHTFLEMNYMLQGHATEIVDDKKITLNTGDLLLLDEGSTHSIKALGDNDLLINILFRTKNISINLLNDLRRSNNIFYDFLLSQVIEDSNHKRDYLVFTKKRNNEVQETLDRIIDEYYLKRDFSNSIIKSYLSILLVQLVREYPLNGPHQENKSSLLAIKVLKAIAEEYKTVSLEELANRYNYNKNYLSNIFKSEVGQTFSEVLTRQRLIQAHTLIASTSLPIATIMEQVGIKNKTFFYQKYKNYYKTLPSTDR, MGSDKIHHHHHHMNTTQELHVIFGTGPLAQAVMRELLARNKRVRMINRSGKADIPSSVEIIASDAYNSENTRAVTTGATVVYQCAQPAYTQWPELFPSLQASIVEGVAANGAKLVVGDNLYMYGPVNGVLREDMPNAATTRKGRVRGQMTEALLDAHRRGIVRVAIGRASDFYGPLVLDSVMGDRIFPSVLTGKPASAIGEIDLPHTYTFIDDFGKALVVLGEEDKALGQIWHVPNAETITTRQFITIAFEEAGYPPKISKMGKFMMRLGGIFIPEARETVEMMYEFDEPFVVNHDKYVQAFGNHATPLREAIRHTLKWYSEHLKTLKT, MGSDKIHHHHHHMNWSQIISLVSAGNYMEVEKILQDYPYIVDMADHLREQKLKVIANLDTYVKRTMDSVEKLGGHAYLAKDKDEARKIIGDLVGEKKTVVFSKTNVAYEIGLREFLQERNNEVWETDLGEYLVQISRGWPTHIVAPALDMTREEAAKAVKKIDPSINENSKIEDIVAAVRKFLMSKYVKADVGITGANAVAADSGSVALVENEGNIRIDTVMPPMHIAVTGIDKIVPTMRDALDEVMVQAAYAGIFPPTYINVTSGPSSTADIELRRVSPATGPKDFHLVLIDNGRLEASKNEDLKEALLCIKCGRCYFSCPIYRTLGKEWISTKSPYNGPTGVMWNYITNKDPWPASYCVHSGGCKEVCPMKINIPEVIKYIKFIGSKQVGK, MGSDKIHHHHHHMNYTDTLKSVDLVLATGEVPLIIGESGIGKTALAKELAQQNQWSLVIINGNLLKEGEIGGLPTIESYVFSGPEAVNPLAATAAKTVGNEQGILQEKKSTVYAVHHKLREIDEAIARGQTVLLFIDEINRCEHTVQQELMNLILNREINGYILPEGVKILAAMNPSSKYGSDFDYQVVDMDAAQENRFVWLFMKPDHKQWIDWAIGAGIEPKVIEFISTFPDYLHKINEDDLRATPRSYERISSSYKIYQENKDSIPRSVFLNVVKGNVGRVIAEEFVNFAEADYSPLIAYDDIFSGTSLPESLRDKVKEESHTRLYLSARNILQTLESHLSKTPANAPDHAQSSMDRLVAFLKLYPVDLKIGIMKDIRSSYPEIYRQAIENEGFVDSYFESYGSLR, MGSDKIHHHHHHMPATVPFVGPEAIERQRNLPVKARIGANESGFGPSPKVHLALQAASSDIWKYADPENFDLKAALAAHYGLAADNFAVGEGVDDLLGLTVRLVIEQGLPVVTSLGGYPTFNFHVNGFGGQLVTVPYRQDREDLDGLLEAVRRENAPLAYLANPDNPMGSWHESHDVVAFARALPETCLLILDEAYSETAPAGSIPAVDALIDLPNVLRMRTFSKAYGLAGARIGYAIGTPGTVSAFDKIRNHFGMVRTSVAAALAALADQDYLTATVARIIAARERISSIARQNGLQPLASATNFVAVDCGRDPAYARSIVDGLMQHGVFIRMPGVAPLNRCIRISAGLPEDLDLLEQALPIVLRDIG
